In paper PMC9023281 one finds stoichiometry N data, which are given here for one molecule.

The test addresses Polθ helicase domain (amino acids 1–894), O75417. Briefly: SEC; calibrated size exclusion chromatography of purified Polθ-h. The settings on record: remark: other sources report otherwise.

B1: Polθ helicase domain (amino acids 1–894), O75417 1-894 (domain or fragment)
chain: MNLLRRSGKRRRSESGSDSFSGSGGDSSASPQFLSGSVLSPPPGLGRCLKAAAAGECKPTVPDYERDKLLLANWGLPKAVLEKYHSFGVKKMFEWQAECLLLGQVLEGKNLVYSAPTSAGKTLVAELLILKRVLEMRKKALFILPFVSVAKEKKYYLQSLFQEVGIKVDGYMGSTSPSRHFSSLDIAVCTIERANGLINRLIEENKMDLLGMVVVDELHMLGDSHRGYLLELLLTKICYITRKSASCQADLASSLSNAVQIVGMSATLPNLELVASWLNAELYHTDFRPVPLLESVKVGNSIYDSSMKLVREFEPMLQVKGDEDHVVSLCYETICDNHSVLLFCPSKKWCEKLADIIAREFYNLHHQAEGLVKPSECPPVILEQKELLEVMDQLRRLPSGLDSVLQKTVPWGVAFHHAGLTFEERDIIEGAFRQGLIRVLAATSTLSSGVNLPARRVIIRTPIFGGRPLDILTYKQMVGRAGRKGVDTVGESILICKNSEKSKGIALLQGSLKPVRSCLQRREGEEVTGSMIRAILEIIVGGVASTSQDMHTYAACTFLAASMKEGKQGIQRNQESVQLGAIEACVMWLLENEFIQSTEASDGTEGKVYHPTHLGSATLSSSLSPADTLDIFADLQRAMKGFVLENDLHILYLVTPMFEDWTTIDWYRFFCLWEKLPTSMKRVAELVGVEEGFLARCVKGKVVARTERQHRQMAIHKRFFTSLVLLDLISEVPLREINQKYGCNRGQIQSLQQSAAVYAGMITVFSNRLGWHNMELLLSQFQKRLTFGIQRELCDLVRVSLLNAQRARVLYASGFHTVADLARANIVEVEVILKNAVPFKSARKAVDEEEEAVEERRNMRTIWVTGRKGLTEREAAALIVEEARMILQQDLVEM
Consider B1, for which the stoichiometry N came to 4.

As a reminder, the stoichiometry N is the number of molecules, sites or subunits per partner or assembly.
